Test results: a protein production outcome set (Wang et al. 2014)

Test: label from the status in PepcDB records
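Also: failed if final PepcDB status was selected cloned or expressed and not failed if soluble or beyond.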

Sequence | protein production
SDDDNPTVDPANIDYTPENASSWHNYMRNVAALLKTDATNLYNAWNSSYKGGESYASLFKAHSGSPYASALSCVEEIVDKCAEIANEVGTAKIGDPYNLYKAGNTEEALYAVESWYSWHSRDDYTNNIYSIRNAYYGSLDGNINANSLSTVIAGANSSLDTKIKNAIQKAAKAIQDIPQPFRNHIPSNETVAAMDACAELESILKNDLKSYIANNSNNINTDAVLNPVVTQYVDAVVVPTYKSLKEKNDALYNAVIVLADNPSNSAFETACDAWITAREPWEKSEAFLFGPVDEMGLDPNMDSWPLDQNAIVQILNSQSWSDLEWSEGDDEAAVESAQNVRGFHTLEFLLYKNGEPRKVQ | not failed
MVMMEQCAWPYIRSVRVRVGERTRAGGEFDLMGTTTRRNASAMKMVGALLALYRQAAGHTQRSLGERFVIGEQQIASIEQGRRPLKPDLAEQLDELLGTKGALSTALSKMPEVDLVPLWAEEFLDREREAIAISSYENQVLPGLLQTEAYAWAVFRSRVPFYDEDTIARLAAARIERQGILQGKEPPITCFVVWEPVVRAPIGGRTVWREQLQRLRACSELPGLMLQVLPQDRTSHAGLNGPFVLLETPEHQRLAYTENQRGSQLIADADEVAILTQKCAMLRSQALTPEDTRDLLDRLLGEQ | failed
MSLVSLPGLPAMISEISKRNNLPTTAVEEALREALLKGYERFRRSQLMGHQFPEEYFNNFEVELDTEEEGFRVLSTKRIVEEVENSDQQISLKEVLEVAEEAQLGDEVVLDVTPEQKDFGRMAAIQTKQVLLQKLRDQQRKIIQEEFQDLEGTVLNARALRFERQSIIVAVQSSFGQPEVEAELPKREQLPNDNYRANSTFRVYLKRVREGSQRGPQLVVSRAAAGLVVDLFSVEVPEIEEEVVRIVAVAREAKPPSPSVGPRTKIAVDTLERDVDPVGACIGARGSRIHAVVNELRGEKIDVIRWSPDPATYIAQALSPARVDQVYLIHAEERHALVIVAEDQLSLAIGKEGQNVRLAARLTGWKIDIKDPETYARDKEAIEQSILERAAASAQARAEREAAEQEAQAKLEAEMAALEAEEAEELEETPEAIAEVEEEVEEWDQDQGPELGEEEELSLEHHHHHH | not failed
MRFLFSLIGLVYSSLIKLAVPFNPKARMMVRGRWKVWRQLREGIVPGGRYIWFHAASLGEFEQGRPMIERIRSEYPDYRIVLTFFSPSGYEVRKNYEGADVIVYLPADRLPRVRKFLDLVKPEMAIFIKYDFWPCFLTELERRQIPTYLVSSIFRPSQLFFRWYGGAYKRLLHCFTHIFVQDKASRLLLEKHGIDHVSVAGDTRFDRVISVYEARKSLPLIERFAASVPEDGLVIVGGSSWPPDEEILVRYFNRNPKIKLILAPHEIDKEHLLQIISHIRRPFIRLSEATESDIARQDCLIVDSFGLLSSIYRYGQVAFIGGGFGKGIHNTPEAAVYGIPVIFGPRYEKFKEARELIDVGGGFSVSSAEEFGNLIKRIQTDKAYRDAASRAAADYIRSNAGATGYIVHRIMKLEHHHHHH | not failed
MAFDLQEQEQIDSLKAFWQQWGKLIGGAVLAVSLGYLGYKAYGMYQRGQSEKAAAAYEAVDDAVAAKDIAKLKSAAQQLQGEYAGTLYASRAALVLAKAAFDKNDPALAASQLEWVLKNGKDEELQAIARLRLASLLLDQKKFDGAIGELNQAHPAAFDAEFLELKGDVFVAKGDSNGARDAYKAALAKMQGESPNRQLVQTKLDALGG | failed
MSDQVPKPHRHHIWRITRRTLSKSWDDSIFSESAQAAFWSALSLPPLLLGMLGSLAYVAPLFGPDTLPAIEKSALSTAHSFFSPSVVNEIIEPTIGDITNNARGEVASLGFLISLWAGSSAISAFVDAVVEAHDQTPLRHPVRQRFFALFLYVVMLVFLVATAPVMVVGPRKVSEHIPESLANLLRYGYYPALILGLTVGVILLYRVALPVPLPTHRLVLGAVLAIAVFLIATLGLRVYLAWITRTGYTYGALATPIAFLLFAFFGGFAIMLGAELNAAVQEEWPAPATHAHRLGNWLKARIGVGTTTYSSTAQHSAVAAEPPS | failed
MGLKNIVVFVEPSNAGATRARYAVELARRHGAHLIGIFVASSDGPIPANAYVRGRDAMRRLIELHDANAIETTSVASRNFNTATNSADITYEFRIIREIESDDTKLHCLHADLVIVGHPRPGGLPLYSSAEGLLLATGIPFLIVPDGWPSGAVAQRVLLAWNASREARRAITDSLPLLSAAQSVSIVVIDSAKNRLHGENPGADVAVYLSRHGAHVTTEQIDSNGSPIADVILQHAVHGGFDLIVLGAYSHARVREAVFGGVTRSLLKLATIPMLIAH | failed
MAVYNPKPEFFRQAVLSVLGQTMPVLELVLVNDGGSDEFKSVLPDDDRIRVFTKPNEGVAATRNFAIKQCRGEYIAFLDQDDYWYSDKLAEQMAMISVKGEACMVISPVDIVDNQGVPIIKQNRKKVTNRYFRKIAHPDIRFPLADGNFIYSSTPLIHRRVFECVGLFDSFTQPHDDWDMYLRIALAGISVHCYRERALSVWRMHDSNESQKRMAMMLSKCEVEWKILQGGVPEPVAKIMHSNLALDQIVMDNLWYNEREFARFRETVRRDLPGLMRCAVNSGRHDRYVTGYRKRAASAIIKSARRYLLSLFSRQR | failed
MIGQFLITFREALEAAIIVAIIIAYLKRTDREEQIRDVWIGVGLSVLASVVLGAIILGLYGGIEEKELFEGIASYLAVIVLTSMIYWMATKGRNIRAEIERKVSKAINPLALVGFTFIVVFREGLETVLFLTPFAIQDLGGTLMGLVSGIIGALILAYLIYGVGMRINLRTFFYYSSILLVFVAAGLAGYGTHELIEWAEEEGMNLGFIEETAYNLGIPEDSVFHHKGVIGSIFAVLFGYSVKMEWGRVIVQFGYLIVTLYLVLRAYGQETPTAKAEK | failed
MKVKSPLEVYNYLPRTNCGECGFDTCMSFAAHILDRSVTPLDCKPLVRDAEKDPKVKKKLEELLELTAPEIAEVVIGVGENAVKIGGEEVLHRHELTFFNPTGFFYDVWDTMDDKALEERCDRVVSYKKFYVGNFLTLDGFAVRCTSGDPKRYREVVKKVASYGKPLILVALDSECMKAALEEVADQRPLMYAATEGNWKEFLKLALEYKVPVTLRAKDLDLLKSMAVTFKQAGVKDIVLDPVTEPLGEGLKGTFERVIQLRRTAIAGQDKDVAYPIMITPIAAWLIEGDDVTKSYWEAVIASIFIVKYGDVMIFRSIDQHVVMPTITLRFNIYTDPRTPVQVEPGLRAINDPGPDDPVFITTNFALTYYTVESDLTSGGIKGWLLVLNTEGLGVEVSVAGGQFTASKVKELIEETKIEEKVNHRYLVIPGLAARLQGAIEDETGWKVLVGPMDSGRIKGWLEKNWPPKE | not failed
MKKRNISVPSKAYLALIIATLCWGGNTVAGKLAVGHISPMAFTFLRWVLAVAIIFAISVPQLIKDWPVVKQRLPYFFVLGSVGYTAFNVFLYTALQHTSAINAAVIQAGIPMVIFVLNFVLFRTRVLFGQIAGFCLTISGVALLASHGDPLSLLQLEMNVGDAVMLLAVLVYAIYTVILRWKPAVDWRTLMAIPAFFALLTSVPLVFFEMSRESLIWPDQKGWMLVVYAGIFASLIAQILYIKGVEQIGANRAGLFINLVPVFGTLLSVFVLSETLHTYQIAALFMALAGIAVAERKKSPAS | failed
MMLAGCQSEEETSQFLLACKYDAPATIAAMLDNGIDVDGQDKTGLSGLMVAAAENRRDVVELLLKRRAKPNLQTRQGVTALMLAAARGSDTAIIGDLLQAGASVNQTSIDKSTALMSAISDGGDVRNDYQHILAMKKPDAPVEEESTLDKIVGATAAKSLATGNRALMTEDMALQLAPGAFKKNVDEIVALLLKHGADVKAVNVSGESAFFLAVDHARSAETITTLANAGADTSLADKSGTTPLMLAAAGDDPDLVLALSASGVEVDKPNREGLTALQVAAGQGAPAVIAALAQRGAKVDQLSANDLSPLMLAVKMNNKANVEALLAAGASVNLSNKAGYTAIGYSRAGEVRQLLLAQHAELKGQAAHMAQSELQFCANAFADKLAYSDIARAVNNDTRPDIMRHQQSCPELGELTMLLGEFTFTPAGATYLGEPVTCKVSEYRKTFEVNCR | failed
MNRSLWTQWSIASVIVLFCAFCLYSPAHAGVDEDLVRAVEDNKTHRVRDLLTKGASPDARDLQSETALMLAARNKNPEMGGLLLEAGANPDLRNKYGETATMLACYYGQLDLVKRLYAKGAKIDHDGWNPLIYAASKGYKEIVEFLLNYGVRIDAATDNGTTALMMAVRGNHYDTVELLLKHGANALIRNEADGTALGWARKQGHTSIVQLLTRNGTAD | failed
MAEPSQAPTPAPAAQPRPLQSPAPAPTPTPAPSPASAPIPTPTPAPAPAPAAAPAGSTGTGGPGVGSGGAGSGGDPARPGLSQQQRASQRKAQVRGLPRAKKLEKLGVFSACKANETCKCNGWKNPKPPTAPRMDLQQPAANLSELCRSCEHPLADHVSHLENVSEDEINRLLGMVVDVENLFMSVHKEEDTDTKQVYFYLFKLLRKCILQMTRPVVEGSLGSPPFEKPNIEQGVLNFVQYKFSHLAPRERQTMFELSKMFLLCLNYWKLETPAQFRQRSQAEDVATYKVNYTRWLCYCHVPQSCDSLPRYETTHVFGRSLLRSIFTVTRRQLLEKFRVEKDKLVPEKRTLILTHFPKFLSMLEEEIYGANSPIWESGFTMPPSEGTQLVPRPASVSAAVVPSTPIFSPSMGGGSNSSLSLDSAGAEPMPGEKRTLPENLTLEDAKRLRVMGDIPMELVNEVMLTITDPAAMLGPETSLLSANAARDETARLEERRGIIEFHVIGNSLTPKANRRVLLWLVGLQNVFSHQLPRMPKEYIARLVFDPKHKTLALIKDGRVIGGICFRMFPTQGFTEIVFCAVTSNEQVKGYGTHLMNHLKEYHIKHNILYFLTYADEYAIGYFKKQGFSKDIKVPKSRYLGYIKDYEGATLMECELNPRIPYTELSHIIKKQKEIIKKLIERKQAQIRKVYPGLSCFKEGVRQIPVESVPGIRETGWKPLGKEKGKELKDPDQLYTTLKNLLAQIKSHPSAWPFMEPVKKSEAPDYYEVIRFPIDLKTMTERLRSRYYVTRKLFVADLQRVIANCREYNPPDSEYCRCASALEKFFYFKLKEGGLIDK | failed
MTYRDFIGRLKENGKLVEIQQPVSPIFEASRIAKKTKGPVLFHNVSGSKVIMNLLGSRDELSSMLGVPKEEIIKKLSEVSPEGEVRLVPGSPTLEVIESEVDLTKLPILTHFEKDGAPYITAGIVVSEYEGVMNASIHRLMLVGKDKLAARLVPPRHTYLLHKKAAEKGETLPVAIVLGCDPTIIYATSTRVPAGKEFEYAAALRGTPVEVFECSNGIKVPHSEIILEGYIDTKERVDEGPFVDITGTYDMVRKEPVIHITRIIHRKDPIYHGILPAGPEHLLMMGVPYEPRIYRAVGEVTTVKNVVLTEGGCCYLHAVVQIEKQTEGDAKNAIMAAFAAHTSLKHVVVVDEDINIFDPNDVEFAIATRVKGDMDILTITNVRGSSLDPRGASDGTTTKVGIDATKVLIEKENFERAIIPEELEHHHHHH | failed
MSDWADLMNDLNKLQHSDAVTTAWQFTEQVPHGRDLGMQVVSVDQGQVCMRLTPQSWMFAHKDTKEICTSVLYSLADSAGGLAVFAGALELMPIATLDLRMDYLRPAIGDRALSAVATCRHLSDDVAFIHCDILSEGNRELLATANATFMRNTQGQQLHAGGPGKESA | failed
MSKVNQQDIDKLIELVGGRGNIATVSHCITRLRFVLNDPAIARPKEIEQLRMVKGCFTNAGQFQVVIGTEVGDYYKALLATTGQTSADKEQVKQA | not failed
MDHYLRWRKRQKLLADFGEFALSNDNLADILTEACRLVGNALGTQRANVLEIEPSKRSLFVRAGVGLDDGIVGKLRLPMREIASERFSPDGSPLDIIHDVHTEPQYDLAAFMEVAGVVALVNVPILLPGRTLYGLLQVESSEPREFSQDDVEFLRTYSTILGPVIDRLNKVRALRDAEERFRLIVEAAR | not failed
MTDVEKPVDNSGTLIDDILSPLKGVNEDLNVLVLGGDKVNNNTDTMMLVNFKPSTSKVSILSIPRDTKVKINGKKAKINSAYPTGGGELAVQTVSELFGIDVKYYVFVDTSSFRKIIDILGGVDYYVPVDMDYDDPLQGLSIHIKKGQHHFDGAMAEKFMRFRQYNNGRVNEYYDGSDLKRIDAQQNFIRELVRQKLNIFYLTKVDDIASTIFSNIDTNLNMSEVLKLTGSVSKVQADSINMLKVPGKSVLDGAWYYVIDSQETDKIINEYFRTRYKLEHHHHHH | not failed
